Test results reported in publication PMC12416549 (2024).

T1: TNFR1 (Homo sapiens, UniProt P19438)
T1 chain: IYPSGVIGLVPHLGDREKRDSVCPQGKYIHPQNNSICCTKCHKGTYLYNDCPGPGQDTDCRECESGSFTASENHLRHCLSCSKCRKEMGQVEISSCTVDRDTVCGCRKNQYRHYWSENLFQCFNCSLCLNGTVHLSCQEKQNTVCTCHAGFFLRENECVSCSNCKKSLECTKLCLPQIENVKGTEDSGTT


Biological target: T1, TNFR1
Experiment: yeast display SC50

Binder | apparent Kd (screen) [nM]
A17G (designed binder) MTLQELLREEALRRAEGEAFRYALELLAEKFPEQKEYLLDLAEEIESQIRSLSGVDVEDVRKFLDKEWAWVKELLAEHPAELAEVEAARAARLAELRAEVEAKVAA | 0.539
I45T (designed binder) MTLQELLREEALRRAEAEAFRYALELLAEKFPEQKEYLLDLAEETESQIRSLSGVDVEDVRKFLDKEWAWVKELLAEHPAELAEVEAARAARLAELRAEVEAKVAA | 10.4
E16M (designed binder) MTLQELLREEALRRAMAEAFRYALELLAEKFPEQKEYLLDLAEEIESQIRSLSGVDVEDVRKFLDKEWAWVKELLAEHPAELAEVEAARAARLAELRAEVEAKVAA | 1.05
L41H (designed binder) MTLQELLREEALRRAEAEAFRYALELLAEKFPEQKEYLLDHAEEIESQIRSLSGVDVEDVRKFLDKEWAWVKELLAEHPAELAEVEAARAARLAELRAEVEAKVAA | 13.8
L12N (designed binder) MTLQELLREEANRRAEAEAFRYALELLAEKFPEQKEYLLDLAEEIESQIRSLSGVDVEDVRKFLDKEWAWVKELLAEHPAELAEVEAARAARLAELRAEVEAKVAA | 0.446
L26W (designed binder) MTLQELLREEALRRAEAEAFRYALEWLAEKFPEQKEYLLDLAEEIESQIRSLSGVDVEDVRKFLDKEWAWVKELLAEHPAELAEVEAARAARLAELRAEVEAKVAA | 0.405
Q48W (designed binder) MTLQELLREEALRRAEAEAFRYALELLAEKFPEQKEYLLDLAEEIESWIRSLSGVDVEDVRKFLDKEWAWVKELLAEHPAELAEVEAARAARLAELRAEVEAKVAA | 29.5
E33D (designed binder) MTLQELLREEALRRAEAEAFRYALELLAEKFPDQKEYLLDLAEEIESQIRSLSGVDVEDVRKFLDKEWAWVKELLAEHPAELAEVEAARAARLAELRAEVEAKVAA | 0.49
A11H (designed binder) MTLQELLREEHLRRAEAEAFRYALELLAEKFPEQKEYLLDLAEEIESQIRSLSGVDVEDVRKFLDKEWAWVKELLAEHPAELAEVEAARAARLAELRAEVEAKVAA | 0.718
V57H (designed binder) MTLQELLREEALRRAEAEAFRYALELLAEKFPEQKEYLLDLAEEIESQIRSLSGVDHEDVRKFLDKEWAWVKELLAEHPAELAEVEAARAARLAELRAEVEAKVAA | 0.593
L24R (designed binder) MTLQELLREEALRRAEAEAFRYARELLAEKFPEQKEYLLDLAEEIESQIRSLSGVDVEDVRKFLDKEWAWVKELLAEHPAELAEVEAARAARLAELRAEVEAKVAA | 7.78
A15V (designed binder) MTLQELLREEALRRVEAEAFRYALELLAEKFPEQKEYLLDLAEEIESQIRSLSGVDVEDVRKFLDKEWAWVKELLAEHPAELAEVEAARAARLAELRAEVEAKVAA | 0.653
S47M (designed binder) MTLQELLREEALRRAEAEAFRYALELLAEKFPEQKEYLLDLAEEIEMQIRSLSGVDVEDVRKFLDKEWAWVKELLAEHPAELAEVEAARAARLAELRAEVEAKVAA | 0.49
E46P (designed binder) MTLQELLREEALRRAEAEAFRYALELLAEKFPEQKEYLLDLAEEIPSQIRSLSGVDVEDVRKFLDKEWAWVKELLAEHPAELAEVEAARAARLAELRAEVEAKVAA | 0.49
E5T (designed binder) MTLQTLLREEALRRAEAEAFRYALELLAEKFPEQKEYLLDLAEEIESQIRSLSGVDVEDVRKFLDKEWAWVKELLAEHPAELAEVEAARAARLAELRAEVEAKVAA | 0.446
Y22M (designed binder) MTLQELLREEALRRAEAEAFRMALELLAEKFPEQKEYLLDLAEEIESQIRSLSGVDVEDVRKFLDKEWAWVKELLAEHPAELAEVEAARAARLAELRAEVEAKVAA | 0.653
F63R (designed binder) MTLQELLREEALRRAEAEAFRYALELLAEKFPEQKEYLLDLAEEIESQIRSLSGVDVEDVRKRLDKEWAWVKELLAEHPAELAEVEAARAARLAELRAEVEAKVAA | 9.41
A42S (designed binder) MTLQELLREEALRRAEAEAFRYALELLAEKFPEQKEYLLDLSEEIESQIRSLSGVDVEDVRKFLDKEWAWVKELLAEHPAELAEVEAARAARLAELRAEVEAKVAA | 0.539
M1R (designed binder) RTLQELLREEALRRAEAEAFRYALELLAEKFPEQKEYLLDLAEEIESQIRSLSGVDVEDVRKFLDKEWAWVKELLAEHPAELAEVEAARAARLAELRAEVEAKVAA | 0.593

Continued, values first:

apparent Kd (screen) [nM] | Binder
0.593 | E99F (designed binder) MTLQELLREEALRRAEAEAFRYALELLAEKFPEQKEYLLDLAEEIESQIRSLSGVDVEDVRKFLDKEWAWVKELLAEHPAELAEVEAARAARLAELRAFVEAKVAA
2.48 | W68C (designed binder) MTLQELLREEALRRAEAEAFRYALELLAEKFPEQKEYLLDLAEEIESQIRSLSGVDVEDVRKFLDKECAWVKELLAEHPAELAEVEAARAARLAELRAEVEAKVAA
0.446 | E95Q (designed binder) MTLQELLREEALRRAEAEAFRYALELLAEKFPEQKEYLLDLAEEIESQIRSLSGVDVEDVRKFLDKEWAWVKELLAEHPAELAEVEAARAARLAQLRAEVEAKVAA
0.653 | E77H (designed binder) MTLQELLREEALRRAEAEAFRYALELLAEKFPEQKEYLLDLAEEIESQIRSLSGVDVEDVRKFLDKEWAWVKELLAHHPAELAEVEAARAARLAELRAEVEAKVAA
2.25 | E86F (designed binder) MTLQELLREEALRRAEAEAFRYALELLAEKFPEQKEYLLDLAEEIESQIRSLSGVDVEDVRKFLDKEWAWVKELLAEHPAELAEVFAARAARLAELRAEVEAKVAA
0.446 | E81H (designed binder) MTLQELLREEALRRAEAEAFRYALELLAEKFPEQKEYLLDLAEEIESQIRSLSGVDVEDVRKFLDKEWAWVKELLAEHPAHLAEVEAARAARLAELRAEVEAKVAA
1.05 | R92E (designed binder) MTLQELLREEALRRAEAEAFRYALELLAEKFPEQKEYLLDLAEEIESQIRSLSGVDVEDVRKFLDKEWAWVKELLAEHPAELAEVEAARAAELAELRAEVEAKVAA
0.869 | V71E (designed binder) MTLQELLREEALRRAEAEAFRYALELLAEKFPEQKEYLLDLAEEIESQIRSLSGVDVEDVRKFLDKEWAWEKELLAEHPAELAEVEAARAARLAELRAEVEAKVAA
0.49 | K103H (designed binder) MTLQELLREEALRRAEAEAFRYALELLAEKFPEQKEYLLDLAEEIESQIRSLSGVDVEDVRKFLDKEWAWVKELLAEHPAELAEVEAARAARLAELRAEVEAHVAA
0.539 | A94W (designed binder) MTLQELLREEALRRAEAEAFRYALELLAEKFPEQKEYLLDLAEEIESQIRSLSGVDVEDVRKFLDKEWAWVKELLAEHPAELAEVEAARAARLWELRAEVEAKVAA
7.78 | W68P (designed binder) MTLQELLREEALRRAEAEAFRYALELLAEKFPEQKEYLLDLAEEIESQIRSLSGVDVEDVRKFLDKEPAWVKELLAEHPAELAEVEAARAARLAELRAEVEAKVAA
0.539 | A106R (designed binder) MTLQELLREEALRRAEAEAFRYALELLAEKFPEQKEYLLDLAEEIESQIRSLSGVDVEDVRKFLDKEWAWVKELLAEHPAELAEVEAARAARLAELRAEVEAKVAR
0.653 | A105M (designed binder) MTLQELLREEALRRAEAEAFRYALELLAEKFPEQKEYLLDLAEEIESQIRSLSGVDVEDVRKFLDKEWAWVKELLAEHPAELAEVEAARAARLAELRAEVEAKVMA
0.653 | A87S (designed binder) MTLQELLREEALRRAEAEAFRYALELLAEKFPEQKEYLLDLAEEIESQIRSLSGVDVEDVRKFLDKEWAWVKELLAEHPAELAEVESARAARLAELRAEVEAKVAA
0.718 | A94C (designed binder) MTLQELLREEALRRAEAEAFRYALELLAEKFPEQKEYLLDLAEEIESQIRSLSGVDVEDVRKFLDKEWAWVKELLAEHPAELAEVEAARAARLCELRAEVEAKVAA
0.539 | A83K (designed binder) MTLQELLREEALRRAEAEAFRYALELLAEKFPEQKEYLLDLAEEIESQIRSLSGVDVEDVRKFLDKEWAWVKELLAEHPAELKEVEAARAARLAELRAEVEAKVAA
